The target of this assay is T1, human calcitonin receptor (human, UniProt P30988 25-474).
T1 construct: whole, on cells; also called hCT-R; hCTR
T1 sequence (looked up): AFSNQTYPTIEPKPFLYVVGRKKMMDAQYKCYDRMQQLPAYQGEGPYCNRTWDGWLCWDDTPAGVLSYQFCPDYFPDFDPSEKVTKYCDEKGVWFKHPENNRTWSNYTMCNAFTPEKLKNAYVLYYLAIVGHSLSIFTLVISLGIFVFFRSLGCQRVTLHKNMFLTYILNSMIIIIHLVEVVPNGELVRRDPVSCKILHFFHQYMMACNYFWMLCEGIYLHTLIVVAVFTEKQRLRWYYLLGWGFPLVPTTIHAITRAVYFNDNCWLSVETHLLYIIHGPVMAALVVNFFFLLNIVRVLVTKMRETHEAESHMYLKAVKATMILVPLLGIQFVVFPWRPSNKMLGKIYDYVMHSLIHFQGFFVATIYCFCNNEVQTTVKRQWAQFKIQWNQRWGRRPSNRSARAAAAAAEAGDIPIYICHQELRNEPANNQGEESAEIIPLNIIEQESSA
Kind of assay: whole-cell competition vs 125I-human calcitonin (Assay VIIa). An outline of the steps: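 BHK tk'ts 13 cells stably co-expressing human calcitonin receptor and a CRE-luciferase reporter, seeded overnight at 37 °C. Bound tracer counted by scintillation after cold HBSS washes and NaOH/SDS lysis; IC₅₀ from one-site competition fit taken as receptor affinity.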

These results are taken from patent publication US20160272683A1 (Novo Nordisk, published 2016).

Numbered stars: 1 amine (or outer) side, 2 acyl side, 3 side chain; on linkers, the order of the positions; unused ones are H or OH. Ends that are not written are not given here. * marks the point of attachment. C20 diacid = O=C(O)CCCCCCCCCCCCCCCCCCC(=O)*; γGlu = O=C(O)[C@H](CCC(=O)[*:2])N[*:1]

B1: [N-terminal(C20 diacid-gGlu), des1, 30S, 31G, 33F]mimylin (peptide)
peptide: {C20 diacid-γGlu}-ASELSTAALGRLSAELHELATLPRTETGSGSF-NH2
SMILES: CC(C)C[C@H](NC(=O)[C@H](C)NC(=O)[C@H](C)NC(=O)[C@@H](NC(=O)[C@H](CO)NC(=O)[C@H](CC(C)C)NC(=O)[C@H](CCC(=O)O)NC(=O)[C@H](CO)NC(=O)[C@H](C)NC(=O)CC[C@H](NC(=O)CCCCCCCCCCCCCCCCCCC(=O)O)C(=O)O)[C@@H](C)O)C(=O)NCC(=O)N[C@@H](CCCNC(=N)N)C(=O)N[C@@H](CC(C)C)C(=O)N[C@@H](CO)C(=O)N[C@@H](C)C(=O)N[C@@H](CCC(=O)O)C(=O)N[C@@H](CC(C)C)C(=O)N[C@@H](Cc1c[nH]cn1)C(=O)N[C@@H](CCC(=O)O)C(=O)N[C@@H](CC(C)C)C(=O)N[C@@H](C)C(=O)N[C@H](C(=O)N[C@@H](CC(C)C)C(=O)N1CCC[C@H]1C(=O)N[C@@H](CCCNC(=N)N)C(=O)N[C@H](C(=O)N[C@@H](CCC(=O)O)C(=O)N[C@H](C(=O)NCC(=O)N[C@@H](CO)C(=O)NCC(=O)N[C@@H](CO)C(=O)N[C@@H](Cc1ccccc1)C(N)=O)[C@@H](C)O)[C@@H](C)O)[C@@H](C)O
notes: also called Ex. #61
Usually IC50 stands for the concentration that gives 50% inhibition. Consider B1, for which the IC50 came out at 1.76 nM.

B2: [N-terminal(C20 diacid-gGlu), des1, 30S, 31G, 33G]mimylin (peptide)
peptide: {C20 diacid-γGlu}-ASELSTAALGRLSAELHELATLPRTETGSGSG-NH2
SMILES: CC(C)C[C@H](NC(=O)[C@H](C)NC(=O)[C@H](C)NC(=O)[C@@H](NC(=O)[C@H](CO)NC(=O)[C@H](CC(C)C)NC(=O)[C@H](CCC(=O)O)NC(=O)[C@H](CO)NC(=O)[C@H](C)NC(=O)CC[C@H](NC(=O)CCCCCCCCCCCCCCCCCCC(=O)O)C(=O)O)[C@@H](C)O)C(=O)NCC(=O)N[C@@H](CCCNC(=N)N)C(=O)N[C@@H](CC(C)C)C(=O)N[C@@H](CO)C(=O)N[C@@H](C)C(=O)N[C@@H](CCC(=O)O)C(=O)N[C@@H](CC(C)C)C(=O)N[C@@H](Cc1c[nH]cn1)C(=O)N[C@@H](CCC(=O)O)C(=O)N[C@@H](CC(C)C)C(=O)N[C@@H](C)C(=O)N[C@H](C(=O)N[C@@H](CC(C)C)C(=O)N1CCC[C@H]1C(=O)N[C@@H](CCCNC(=N)N)C(=O)N[C@H](C(=O)N[C@@H](CCC(=O)O)C(=O)N[C@H](C(=O)NCC(=O)N[C@@H](CO)C(=O)NCC(=O)N[C@@H](CO)C(=O)NCC(N)=O)[C@@H](C)O)[C@@H](C)O)[C@@H](C)O
notes: also called Ex. #64
Regarding B2, the IC50 amounted to 3.63 nM. On to ASELTTAVLGRLEAELHELTTLPRTETGTGTP-NH2 (backbone without side chain) [[des1, 6T, 9V, 14E, 21T, 30T, 31G, 32T]mimylin], for which the IC50 was 62.9 nM.

B3: [des1, 12H, 30S, 31G]mimylin (peptide)
peptide: ASELSTAALGHLSAELHELATLPRTETGSGSP-NH2
notes: backbone without side chain; also called Ex. #72bb; 72bb
Take B3: the IC50 was 4.53 nM.

B4: [N-terminal(C20 diacid-gGlu), des1, 30T, 31G, 32T]mimylin (peptide)
peptide: {C20 diacid-γGlu}-ASELSTAALGRLSAELHELATLPRTETGTGTP-NH2
SMILES: CC(C)C[C@H](NC(=O)[C@H](C)NC(=O)[C@H](C)NC(=O)[C@@H](NC(=O)[C@H](CO)NC(=O)[C@H](CC(C)C)NC(=O)[C@H](CCC(=O)O)NC(=O)[C@H](CO)NC(=O)[C@H](C)NC(=O)CC[C@H](NC(=O)CCCCCCCCCCCCCCCCCCC(=O)O)C(=O)O)[C@@H](C)O)C(=O)NCC(=O)N[C@@H](CCCNC(=N)N)C(=O)N[C@@H](CC(C)C)C(=O)N[C@@H](CO)C(=O)N[C@@H](C)C(=O)N[C@@H](CCC(=O)O)C(=O)N[C@@H](CC(C)C)C(=O)N[C@@H](Cc1c[nH]cn1)C(=O)N[C@@H](CCC(=O)O)C(=O)N[C@@H](CC(C)C)C(=O)N[C@@H](C)C(=O)N[C@H](C(=O)N[C@@H](CC(C)C)C(=O)N1CCC[C@H]1C(=O)N[C@@H](CCCNC(=N)N)C(=O)N[C@H](C(=O)N[C@@H](CCC(=O)O)C(=O)N[C@H](C(=O)NCC(=O)N[C@H](C(=O)NCC(=O)N[C@H](C(=O)N1CCC[C@H]1C(N)=O)[C@@H](C)O)[C@@H](C)O)[C@@H](C)O)[C@@H](C)O)[C@@H](C)O
notes: also called Ex. #74
Regarding B4, the IC50 was 1.08 nM.

B5: [des1, 6T, 9V, 30T, 31G, 32T]mimylin (peptide)
peptide: ASELTTAVLGRLSAELHELATLPRTETGTGTP-NH2
notes: backbone without side chain; also called Ex. #95bb; 95bb
In the case of B5, the IC50 stood at 15.3 nM.

B6: [N-terminal(C20 diacid-gGlu), des1, 30S, 31G, 33H]mimylin (peptide)
peptide: {C20 diacid-γGlu}-ASELSTAALGRLSAELHELATLPRTETGSGSH-NH2
SMILES: CC(C)C[C@H](NC(=O)[C@H](C)NC(=O)[C@H](C)NC(=O)[C@@H](NC(=O)[C@H](CO)NC(=O)[C@H](CC(C)C)NC(=O)[C@H](CCC(=O)O)NC(=O)[C@H](CO)NC(=O)[C@H](C)NC(=O)CC[C@H](NC(=O)CCCCCCCCCCCCCCCCCCC(=O)O)C(=O)O)[C@@H](C)O)C(=O)NCC(=O)N[C@@H](CCCNC(=N)N)C(=O)N[C@@H](CC(C)C)C(=O)N[C@@H](CO)C(=O)N[C@@H](C)C(=O)N[C@@H](CCC(=O)O)C(=O)N[C@@H](CC(C)C)C(=O)N[C@@H](Cc1c[nH]cn1)C(=O)N[C@@H](CCC(=O)O)C(=O)N[C@@H](CC(C)C)C(=O)N[C@@H](C)C(=O)N[C@H](C(=O)N[C@@H](CC(C)C)C(=O)N1CCC[C@H]1C(=O)N[C@@H](CCCNC(=N)N)C(=O)N[C@H](C(=O)N[C@@H](CCC(=O)O)C(=O)N[C@H](C(=O)NCC(=O)N[C@@H](CO)C(=O)NCC(=O)N[C@@H](CO)C(=O)N[C@@H](Cc1c[nH]cn1)C(N)=O)[C@@H](C)O)[C@@H](C)O)[C@@H](C)O
notes: also called Ex. #60
Regarding B6, the IC50 was determined as 1.53 nM.

B7: [N-terminal(C20 diacid-gGlu), des1, 30S, 31G, 33S]mimylin (peptide)
peptide: {C20 diacid-γGlu}-ASELSTAALGRLSAELHELATLPRTETGSGSS-NH2
SMILES: CC(C)C[C@H](NC(=O)[C@H](C)NC(=O)[C@H](C)NC(=O)[C@@H](NC(=O)[C@H](CO)NC(=O)[C@H](CC(C)C)NC(=O)[C@H](CCC(=O)O)NC(=O)[C@H](CO)NC(=O)[C@H](C)NC(=O)CC[C@H](NC(=O)CCCCCCCCCCCCCCCCCCC(=O)O)C(=O)O)[C@@H](C)O)C(=O)NCC(=O)N[C@@H](CCCNC(=N)N)C(=O)N[C@@H](CC(C)C)C(=O)N[C@@H](CO)C(=O)N[C@@H](C)C(=O)N[C@@H](CCC(=O)O)C(=O)N[C@@H](CC(C)C)C(=O)N[C@@H](Cc1c[nH]cn1)C(=O)N[C@@H](CCC(=O)O)C(=O)N[C@@H](CC(C)C)C(=O)N[C@@H](C)C(=O)N[C@H](C(=O)N[C@@H](CC(C)C)C(=O)N1CCC[C@H]1C(=O)N[C@@H](CCCNC(=N)N)C(=O)N[C@H](C(=O)N[C@@H](CCC(=O)O)C(=O)N[C@H](C(=O)NCC(=O)N[C@@H](CO)C(=O)NCC(=O)N[C@@H](CO)C(=O)N[C@@H](CO)C(N)=O)[C@@H](C)O)[C@@H](C)O)[C@@H](C)O
notes: also called Ex. #63
Take B7: the IC50 worked out at 2.6 nM.

B8: [des1, 5V, 9V, 30S, 31G]mimylin (peptide)
peptide: ASEVSTAVLGRLSAELHELATLPRTETGSGSP-NH2
notes: backbone without side chain; also called Ex. #86bb; 86bb
Regarding B8, the IC50 was 0.52 nM.

B9: [N-terminal(C20 diacid-gGlu), des1, 30S, 31G, 33L]mimylin (peptide)
peptide: {C20 diacid-γGlu}-ASELSTAALGRLSAELHELATLPRTETGSGSL-NH2
SMILES: CC(C)C[C@H](NC(=O)[C@H](CO)NC(=O)CNC(=O)[C@H](CO)NC(=O)CNC(=O)[C@@H](NC(=O)[C@H](CCC(=O)O)NC(=O)[C@@H](NC(=O)[C@H](CCCNC(=N)N)NC(=O)[C@@H]1CCCN1C(=O)[C@H](CC(C)C)NC(=O)[C@@H](NC(=O)[C@H](C)NC(=O)[C@H](CC(C)C)NC(=O)[C@H](CCC(=O)O)NC(=O)[C@H](Cc1c[nH]cn1)NC(=O)[C@H](CC(C)C)NC(=O)[C@H](CCC(=O)O)NC(=O)[C@H](C)NC(=O)[C@H](CO)NC(=O)[C@H](CC(C)C)NC(=O)[C@H](CCCNC(=N)N)NC(=O)CNC(=O)[C@H](CC(C)C)NC(=O)[C@H](C)NC(=O)[C@H](C)NC(=O)[C@@H](NC(=O)[C@H](CO)NC(=O)[C@H](CC(C)C)NC(=O)[C@H](CCC(=O)O)NC(=O)[C@H](CO)NC(=O)[C@H](C)NC(=O)CC[C@H](NC(=O)CCCCCCCCCCCCCCCCCCC(=O)O)C(=O)O)[C@@H](C)O)[C@@H](C)O)[C@@H](C)O)[C@@H](C)O)C(N)=O
notes: also called Ex. #62
For the molecule B9, the IC50 was 2.33 nM.

B10: [N-terminal(C20 diacid-gGlu), -1E, 1A, 23Y, 30S, 31G]mimylin (peptide)
peptide: {C20 diacid-γGlu}-EAASELSTAALGRLSAELHELATYPRTETGSGSP-NH2
SMILES: CC(C)C[C@H](NC(=O)[C@H](C)NC(=O)[C@H](C)NC(=O)[C@@H](NC(=O)[C@H](CO)NC(=O)[C@H](CC(C)C)NC(=O)[C@H](CCC(=O)O)NC(=O)[C@H](CO)NC(=O)[C@H](C)NC(=O)[C@H](C)NC(=O)[C@H](CCC(=O)O)NC(=O)CC[C@H](NC(=O)CCCCCCCCCCCCCCCCCCC(=O)O)C(=O)O)[C@@H](C)O)C(=O)NCC(=O)N[C@@H](CCCNC(=N)N)C(=O)N[C@@H](CC(C)C)C(=O)N[C@@H](CO)C(=O)N[C@@H](C)C(=O)N[C@@H](CCC(=O)O)C(=O)N[C@@H](CC(C)C)C(=O)N[C@@H](Cc1c[nH]cn1)C(=O)N[C@@H](CCC(=O)O)C(=O)N[C@@H](CC(C)C)C(=O)N[C@@H](C)C(=O)N[C@H](C(=O)N[C@@H](Cc1ccc(O)cc1)C(=O)N1CCC[C@H]1C(=O)N[C@@H](CCCNC(=N)N)C(=O)N[C@H](C(=O)N[C@@H](CCC(=O)O)C(=O)N[C@H](C(=O)NCC(=O)N[C@@H](CO)C(=O)NCC(=O)N[C@@H](CO)C(=O)N1CCC[C@H]1C(N)=O)[C@@H](C)O)[C@@H](C)O)[C@@H](C)O
notes: also called Ex. #83
Regarding B10, the IC50 is 1.57 nM.
